In assay [1] the target is T1, Fc-His-tagged human B7H6 ECD (human).
T1 construct: also called huB7H6-ECD-Fc-His; recombinant human B7H6 ECD
The assay can be described thus: ELISA, plate coated with Fc-His-tagged human B7H6 ECD, anti-human IgG F(ab')2-peroxidase, TMB.

In assay [2] the target is T2, human B7H6 on HCT-15 cells (human, UniProt Q68D85 25-454).
T2 sequence (looked up): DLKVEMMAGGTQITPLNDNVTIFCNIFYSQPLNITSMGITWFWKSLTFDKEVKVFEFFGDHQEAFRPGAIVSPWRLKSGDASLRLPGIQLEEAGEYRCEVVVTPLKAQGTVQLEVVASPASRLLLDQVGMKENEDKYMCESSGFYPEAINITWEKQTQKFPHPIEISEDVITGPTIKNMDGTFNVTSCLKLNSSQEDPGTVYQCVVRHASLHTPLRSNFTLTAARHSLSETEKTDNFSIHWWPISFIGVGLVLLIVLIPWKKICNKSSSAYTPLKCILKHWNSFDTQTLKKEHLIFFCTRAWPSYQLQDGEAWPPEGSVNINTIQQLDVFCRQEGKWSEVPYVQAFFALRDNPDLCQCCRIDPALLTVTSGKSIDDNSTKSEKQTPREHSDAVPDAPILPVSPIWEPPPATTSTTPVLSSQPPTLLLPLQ
Description: cell-based or functional assay.

In assay [3] the target is T3, Fc-His-tagged human Ala-mutated B7H6 ECD (human).
T3 construct: also called huB7H6-Ala-ECD
The assay can be described thus: ELISA, plate coated with Fc-His-tagged human Ala-mutated B7H6 ECD, anti-human IgG F(ab')2-peroxidase, TMB. How it is done: To assess binding of B7H6/CD3 binding proteins to recombinant human Fc-His-tagged B7H6 ECD and human Fc-His-tagged Ala-mutated B7H6 extracellular proteins as described in Example 3, MediSorp™ plates (Nunc, 467320) were coated with […] recombinant proteins overnight at 4° C. The next day, plates were blocked with 0.5% bovine serum albumin (BSA) in phosphate buffered saline (PBS) for 1 hour at room temperature (RT). Subsequently plates were washed with […] containing 0.05% TWEEN®20 viscous liquid and B7H6/CD3 binding proteins were incubated at concentrations ranging from 0.00001 to 10 μg/ml. After an additional washing step, bound B7H6/CD3 binding proteins were detected by a peroxidase conjugated goat anti-human IgG F(ab′)₂-specific secondary antibody (Jackson Immunoresearch) and visualized by TMB substrate solution (Bender Med Systems).

Assay [4] has as its target T2, human B7H6 on HCT-15 cells. The assay can be described thus: flow cytometry on HCT-15 cells, PE anti-human secondary antibody. The protocol:
Binding of B7H6/CD3 binding proteins to HCT-15, a human (colo-rectal cancer) CRC cell line was tested by flow cytometry. In a previous experiment, it has been confirmed that HCT-15 cells expresses B7-H6 on the RNA levels as well as the protein level with approximately 8,000 B7-H6 receptors on the cell surface (data not shown). B7H6/CD3 binding proteins were produced, as described in Example 2. HCT-15 cells were stained with increasing concentrations of two-step purified B7H6/CD3 binding proteins in FACS buffer (PBS/0.5% BSA/0.05% sodium azide). Bound molecules were detected with PE-conjugated anti-human secondary antibody (Sigma-Aldrich, #P8047).
A general note: Flow cytometry measures light scatter and fluorescence of single cells or particles in a stream.

B1: B7H6#4/CD3#1 (bispecific antibody, human IgG1, kappa, lambda, L234A L235A)
chain 1: DIVMTQSQKFMSTSVGDRVSVTCKASQNVGKYVAWYQQKPGQSPKALIYSASNRYDGVPDRFTGSGSGTDFTLTITNVQSEDLTEYFCQQYISYPLTFGAGTKLELKRTVAAPSVFIFPPSDEQLKSGTASVVCLLNNFYPREAKVQWKVDNALQSGNSQESVTEQDSKDSTYSLSSTLTLSKADYEKHKVYACEVTHQGLSSPVTKSFNRGECGGGGSEGKSSGSGSESKSTEGKSSGSGSESKSTGGGGSQVQLQQPGSVLVRPGASVRLSCKASGYTFTNYWMNWMKQRPGQGLEWIGGIYLNGDSTDYNEKFKGKATLTVDTSSSTTYMDLSSLTYEDSAVYYCTTRGDYFGDFWGQGTTLTVSSASTKGPSVFPLAPSSKSTSGGTAALGCLVKDYFPEPVTVSWNSGALTSGVHTFPAVLQSSGLYSLSSVVTVPSSSLGTQTYICNVNHKPSNTKVDKRVEPKSCDKTHTCPPCPAPEAAGGPSVFLFPPKPKDTLMISRTPEVTCVVVDVSHEDPEVKFNWYVDGVEVHNAKTKPREEQYNSTYRVVSVLTVLHQDWLNGKEYKCKVSNKALPAPIEKTISKAKGQPREPQVYTLPPSREEMTKNQVSLWCLVKGFYPSDIAVEWESNGQPENNYKTTPPVLDSDGSFFLYSKLTVDKSRWQQGNVFSCSVMHEALHNHYTQKSLSLSPG
chain 2: EAVVTQEPSLTVSPGGTVTLTCRSSTGAVTTSNYANWVQEKPGQLPRGLIGGTNKRAPWVPARFSGSLLGGKAALTLSGAQPEDEAEYFCALWYSNLWVFGGGTKLTVLGQPKAAPSVTLFPPSSEELQANKATLVCLISDFYPGAVKVAWKADGSPVNTGVETTTPSKQSNNKYAASSYLSLTPEQWKSHRSYSCQVTHEGSTVEKTVAPAECSGGGGSEGKSSGSGSESKSTEGKSSGSGSESKSTGGGGSEVQLVESGGGLVQPGGSLKLSCAASGFTFNTYAMNWVRQAPGKGLEWVARIRSKYNNYATYYADSVKDRFTISRDDSKNTAYLQMNNLKTEDTAVYYCVRHGNFGNSYVSWFAYWGQGTLVTVSAASTKGPSVFPLAPSSKSTSGGTAALGCLVKDYFPEPVTVSWNSGALTSGVHTFPAVLQSSGLYSLSSVVTVPSSSLGTQTYICNVNHKPSNTKVDKRVEPKSCDKTHTCPPCPAPEAAGGPSVFLFPPKPKDTLMISRTPEVTCVVVDVSHEDPEVKFNWYVDGVEVHNAKTKPREEQYNSTYRVVSVLTVLHQDWLNGKEYKCKVSNKALPAPIEKTISKAKGQPREPQVYTLPPSREEMTKNQVSLSCAVKGFYPSDIAVEWESNGQPENNYKTTPPVLDSDGSFFLVSKLTVDKSRWQQGNVFSCSVMHEALHNRFTQKSLSLSPG
notes: scFab-Fc heterodimer, one B7H6 chain and one CD3 chain
For B1, the 50% effective concentration (EC50 (read off the curve)) in assay [1] is approximately 0.05 µg/mL; in assay [3], approximately 0.2 µg/mL. For the same molecule, the “EC50 [nM], 72 hour cytotoxicity assay, non-stimulated T-cells (Donor #1) as effector cells, HCT-15 cells as target cells” value in assay [2] is 0.23 nM.

B2: B7H6#7/CD3#1 (bispecific antibody, human IgG1, kappa, lambda, L234A L235A)
chain 1: DIQMTQSPSSVSASVGDRVTITCRASQGISSWLAWYQQKPGKAPNLLIYAASSLQSGVPSRFSGSGSGTDFTLTISSLQPEDFATYYCQQANSFPRTFGQGTKVEIKRTVAAPSVFIFPPSDEQLKSGTASVVCLLNNFYPREAKVQWKVDNALQSGNSQESVTEQDSKDSTYSLSSTLTLSKADYEKHKVYACEVTHQGLSSPVTKSFNRGECGGGGSEGKSSGSGSESKSTEGKSSGSGSESKSTGGGGSQVQLQESGPGLVKPSETLSLTYTVSGGSISYNYWSWIRQPPEKGLEWIGHIYYSGSTNYNPSLKSRVTISVDTSKNQFSLKLNSVTAADTAVYYCARVGTWGSFDDWGQGTLVTVSSASTKGPSVFPLAPSSKSTSGGTAALGCLVKDYFPEPVTVSWNSGALTSGVHTFPAVLQSSGLYSLSSVVTVPSSSLGTQTYICNVNHKPSNTKVDKRVEPKSCDKTHTCPPCPAPEAAGGPSVFLFPPKPKDTLMISRTPEVTCVVVDVSHEDPEVKFNWYVDGVEVHNAKTKPREEQYNSTYRVVSVLTVLHQDWLNGKEYKCKVSNKALPAPIEKTISKAKGQPREPQVYTLPPSREEMTKNQVSLWCLVKGFYPSDIAVEWESNGQPENNYKTTPPVLDSDGSFFLYSKLTVDKSRWQQGNVFSCSVMHEALHNHYTQKSLSLSPG
chain 2: EAVVTQEPSLTVSPGGTVTLTCRSSTGAVTTSNYANWVQEKPGQLPRGLIGGTNKRAPWVPARFSGSLLGGKAALTLSGAQPEDEAEYFCALWYSNLWVFGGGTKLTVLGQPKAAPSVTLFPPSSEELQANKATLVCLISDFYPGAVKVAWKADGSPVNTGVETTTPSKQSNNKYAASSYLSLTPEQWKSHRSYSCQVTHEGSTVEKTVAPAECSGGGGSEGKSSGSGSESKSTEGKSSGSGSESKSTGGGGSEVQLVESGGGLVQPGGSLKLSCAASGFTFNTYAMNWVRQAPGKGLEWVARIRSKYNNYATYYADSVKDRFTISRDDSKNTAYLQMNNLKTEDTAVYYCVRHGNFGNSYVSWFAYWGQGTLVTVSAASTKGPSVFPLAPSSKSTSGGTAALGCLVKDYFPEPVTVSWNSGALTSGVHTFPAVLQSSGLYSLSSVVTVPSSSLGTQTYICNVNHKPSNTKVDKRVEPKSCDKTHTCPPCPAPEAAGGPSVFLFPPKPKDTLMISRTPEVTCVVVDVSHEDPEVKFNWYVDGVEVHNAKTKPREEQYNSTYRVVSVLTVLHQDWLNGKEYKCKVSNKALPAPIEKTISKAKGQPREPQVYTLPPSREEMTKNQVSLSCAVKGFYPSDIAVEWESNGQPENNYKTTPPVLDSDGSFFLVSKLTVDKSRWQQGNVFSCSVMHEALHNRFTQKSLSLSPG
notes: as for B1
For B2, the “EC50 (read off the curve)” value is approximately 0.05 µg/mL in assay [1] and approximately 1 nM in assay [4]. Further, in assay [2], the “EC50 [nM], 72 hour cytotoxicity assay, non-stimulated T-cells (Donor #1) as effector cells, HCT-15 cells as target cells” value is 0.36 nM.

B3: B7H6#6/CD3#1 (bispecific antibody, human IgG1, kappa, lambda, L234A L235A)
chain 1: DIVMTQSPDSLPVSAGDRVTITCKASQSVSNDVVWYQQKPGQSPKLLMYSTSNRYIGVPDRFTGSGYGTDFTFTISTVQAEDLAVYFCQQDYSSPYTFGGGTKLEIKRTVAAPSVFIFPPSDEQLKSGTASVVCLLNNFYPREAKVQWKVDNALQSGNSQESVTEQDSKDSTYSLSSTLTLSKADYEKHKVYACEVTHQGLSSPVTKSFNRGECGGGGSEGKSSGSGSESKSTEGKSSGSGSESKSTGGGGSEVQLQQSGPELLKPGASVKISCKTSGYTFTDYTMHWVKQSHGKSLEWIGGINPNYDNTGYSEKFKDKATLTVDKSSSTAYMELRSLTSEDSAVYYCTRSGSRRSFYFDYWGQGTTLTVSSASTKGPSVFPLAPSSKSTSGGTAALGCLVKDYFPEPVTVSWNSGALTSGVHTFPAVLQSSGLYSLSSVVTVPSSSLGTQTYICNVNHKPSNTKVDKRVEPKSCDKTHTCPPCPAPEAAGGPSVFLFPPKPKDTLMISRTPEVTCVVVDVSHEDPEVKFNWYVDGVEVHNAKTKPREEQYNSTYRVVSVLTVLHQDWLNGKEYKCKVSNKALPAPIEKTISKAKGQPREPQVYTLPPSREEMTKNQVSLWCLVKGFYPSDIAVEWESNGQPENNYKTTPPVLDSDGSFFLYSKLTVDKSRWQQGNVFSCSVMHEALHNHYTQKSLSLSPG
chain 2: EAVVTQEPSLTVSPGGTVTLTCRSSTGAVTTSNYANWVQEKPGQLPRGLIGGTNKRAPWVPARFSGSLLGGKAALTLSGAQPEDEAEYFCALWYSNLWVFGGGTKLTVLGQPKAAPSVTLFPPSSEELQANKATLVCLISDFYPGAVKVAWKADGSPVNTGVETTTPSKQSNNKYAASSYLSLTPEQWKSHRSYSCQVTHEGSTVEKTVAPAECSGGGGSEGKSSGSGSESKSTEGKSSGSGSESKSTGGGGSEVQLVESGGGLVQPGGSLKLSCAASGFTFNTYAMNWVRQAPGKGLEWVARIRSKYNNYATYYADSVKDRFTISRDDSKNTAYLQMNNLKTEDTAVYYCVRHGNFGNSYVSWFAYWGQGTLVTVSAASTKGPSVFPLAPSSKSTSGGTAALGCLVKDYFPEPVTVSWNSGALTSGVHTFPAVLQSSGLYSLSSVVTVPSSSLGTQTYICNVNHKPSNTKVDKRVEPKSCDKTHTCPPCPAPEAAGGPSVFLFPPKPKDTLMISRTPEVTCVVVDVSHEDPEVKFNWYVDGVEVHNAKTKPREEQYNSTYRVVSVLTVLHQDWLNGKEYKCKVSNKALPAPIEKTISKAKGQPREPQVYTLPPSREEMTKNQVSLSCAVKGFYPSDIAVEWESNGQPENNYKTTPPVLDSDGSFFLVSKLTVDKSRWQQGNVFSCSVMHEALHNRFTQKSLSLSPG
notes: as for B1
As to B3, the “EC50 (read off the curve)” value in assay [1] was approximately 0.05 µg/mL. In assay [2], the “EC50 [nM], 72 hour cytotoxicity assay, non-stimulated T-cells (Donor #1) as effector cells, HCT-15 cells as target cells” value turned out to be 0.46 nM. Further, the binding result in assay [3] is given as “no binding (tested: 10 µg/ml)”.

Broadly, the EC50 (read off the curve) is the concentration giving half of the maximal effect. Read a high EC50 (read off the curve) as a need for much substance.

Values taken from patent US20210107983A1 (Boehringer Ingelheim, published 2021).
